According to patent US20220332812A1, “TREATMENT METHODS FOR EYE DISORDERS” (University of Pittsburgh - of the Commonwealth System of …, priority 2019, published 2022):

Tests used:
diabetic Nuc1 rats = assay: retinal function by electroretinography (ERG) in diabetic Nuc1 rats; format: in vivo, rat; conditions: FIGS. 20A-20B
Excerpt: Therefore, βA1-crystallin is a first of its kind inhibitor that can be used as a therapy for DR.

Dab2 = biological target: T1, Dab2 (Homo sapiens, UniProt P98082); assay: HuProt human proteome microarray, LCN-2 binding partners; conditions: recombinant LCN-2 probed at 1 μg/mL, Z-score cutoff 6
T1 construct: purchased CDI NextGen Proteomics, MD, USA HuProt v3.1
T1 sequence (P98082 1-770): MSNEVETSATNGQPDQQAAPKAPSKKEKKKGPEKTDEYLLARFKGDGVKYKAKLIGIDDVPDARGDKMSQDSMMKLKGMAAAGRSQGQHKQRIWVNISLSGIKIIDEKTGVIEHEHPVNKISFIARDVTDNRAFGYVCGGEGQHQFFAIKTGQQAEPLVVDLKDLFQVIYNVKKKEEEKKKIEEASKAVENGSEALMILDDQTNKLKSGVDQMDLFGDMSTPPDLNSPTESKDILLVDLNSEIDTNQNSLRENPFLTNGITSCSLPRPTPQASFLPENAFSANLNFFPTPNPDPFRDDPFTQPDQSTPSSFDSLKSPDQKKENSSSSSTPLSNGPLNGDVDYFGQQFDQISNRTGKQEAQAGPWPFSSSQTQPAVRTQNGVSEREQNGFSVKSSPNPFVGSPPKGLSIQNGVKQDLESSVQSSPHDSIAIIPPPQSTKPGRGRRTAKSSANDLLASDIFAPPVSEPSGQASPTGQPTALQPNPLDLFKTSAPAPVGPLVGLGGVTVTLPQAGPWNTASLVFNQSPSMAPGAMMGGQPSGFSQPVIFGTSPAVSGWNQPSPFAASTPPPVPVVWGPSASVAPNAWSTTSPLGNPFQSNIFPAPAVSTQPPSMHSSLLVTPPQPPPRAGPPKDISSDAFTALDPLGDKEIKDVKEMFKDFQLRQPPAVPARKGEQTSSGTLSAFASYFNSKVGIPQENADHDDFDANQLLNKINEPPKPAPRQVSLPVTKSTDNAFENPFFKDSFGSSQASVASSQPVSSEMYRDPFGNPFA
Method: The human proteome microarray 2.0 analysis was performed as a paid service from CDI NextGen Proteomics, MD, USA. Recombinant LCN-2 was analyzed for protein-protein interaction profiling on the HuProt™ v3.1 human proteome array and the sample was probed on array plates at 1 μg/mL, with data analyzed using GenePix software. Hit identification was assessed as the ratio of median value of the foreground to the median of the surrounding background for each protein probe on the microarray, followed by normalization to the median value of all neighboring probes within the […] window size and represented as the significance of the probe binding signal difference from random noise (Z-Score). The cutoff Z-score was 6 in this study for the triplicate analysis; only protein interactions with a Z-score above 6 were considered.
The above-described observations prompted the further investigation of the possible molecular mechanisms by which neutrophils infiltrate into the retina and thereby contribute to the pathogenesis of AMD. It has previously been shown that LCN-2 regulates neutrophil chemotaxis and cell migration in cancer cells (Shao et al., J. Invest. Dermatol., 136, 1418-1428 (2016), and Du et al., Biochim. Biophys. Acta, 1853: 2240-2250 (2015)). […]

NOD-SCID mice [1] = assay: sub-retinal injection in NOD-SCID mice, OCT; format: in vivo, mouse
Excerpt: (§1) NOD-SCID mice (NOD.CB17-Prkdescid/J, Jackson Laboratories, USA, male, 4-5 weeks old) were used for the study. A large sample size, n=10, was taken to nullify any experimental anomaly. Mice were anaesthetized and sub-retinal injections of neutrophils from different experimental groups or recombinant LCN-2 protein were given as described previously (Maruotti et al., Proc. Natl. Acad. Sci. USA., 112: 10950-10955 (2015)). Seven days after treatment, the NOD-SCID mice were anaesthetized by intraperitoneal injection of a ketamine and xylazine mixture and then subjected to Fundus imaging along with OCT analysis using the Bioptigen Envisu R2210 system. OCT images were analyzed on optical sections (100 sections per retina) from each eye ranging from −2.0 to +2.0 mm with respect to the optic nerve head (ONH) using the FIJI-ImageJ (NIH) plugin provided with the instrument along with Diver 2.4 software (Bioptigen). After the experiment, the animals were euthanized with CO2 gas and the eyes were harvested for further experiments. […]

NOD-SCID mice [2] = assay: retinal sections of injected NOD-SCID mice: hematoxylin-eosin staining and immunofluorescence; format: in vivo, mouse
Method: Freshly enucleated eyes were fixed in 2% paraformaldehyde (PFA) for 10 min and then the anterior parts (cornea, lens, and attached iris pigmented epithelium) were removed. The resulting posterior eyecups were fixed in 2% PFA for 1 h at room temperature either for cryosections or RPE/retina flat mount. For cryosections, the eyecups were dehydrated through gradient sucrose solutions and embedded in OCT and for RPE/retina flatmounts, tissues were removed after the eyecup was quartered like a petaloid structure. The resulting eyecup was further cut radially into eight pieces from the optic nerve head to the periphery. Immunostaining on human/mouse retina sections or on retina/RPE flatmounts were performed by using appropriate primary antibody (1:100) and incubated at 4° C. overnight. The RPE/retina flatmounts or human or mouse retina sections were washed with 1×TBS thrice and then stained with appropriate secondary antibodies (1:300) with 1 μg/mL DAPI (Sigma Aldrich, USA) in the dark at room temperature for 2 h. The tissue sections or flatmounts were washed 6 times with 1×TBS. The tissues were mounted on a cover slip with DAKO mounting agent and then visualized under a confocal microscope (Zeiss LSM710, Switzerland).
as §1, with “Seven days after treatment, the NOD-SCID mice were anaesthetized by intraperitoneal injection of a ketamine and xylazine mixture and then subjected to Fundus imaging along with OCT analysis using the Bioptigen Envisu R2210 system.” left out, “(Bioptigen).” for “(Bioptigen). After the experiment, the animals were euthanized with CO2 gas and the eyes were harvested for further experiments.”

PTP1B [3] = biological target: T2, PTP1B (Homo sapiens, UniProt P18031); assay: pull-down assay; format: binding
T2 sequence (P18031 1-435): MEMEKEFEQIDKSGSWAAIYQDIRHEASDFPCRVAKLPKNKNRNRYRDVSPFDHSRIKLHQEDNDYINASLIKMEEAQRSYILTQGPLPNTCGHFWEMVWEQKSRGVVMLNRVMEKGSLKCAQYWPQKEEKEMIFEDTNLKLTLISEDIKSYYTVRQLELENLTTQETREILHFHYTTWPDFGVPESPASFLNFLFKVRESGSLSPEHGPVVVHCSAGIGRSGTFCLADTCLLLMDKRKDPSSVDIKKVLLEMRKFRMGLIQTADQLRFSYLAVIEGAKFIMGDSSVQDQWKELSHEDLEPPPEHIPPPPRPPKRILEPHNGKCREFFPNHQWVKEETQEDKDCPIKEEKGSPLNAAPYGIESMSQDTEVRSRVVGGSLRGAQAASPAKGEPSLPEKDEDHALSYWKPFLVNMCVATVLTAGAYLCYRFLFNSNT

PTP1B [4] = biological target: T3, PTP1B (Rattus norvegicus, UniProt P20417); assay: co-immunoprecipitation in astrocytes; conditions: wild-type astrocytes; binding lost in Nuc1 cells
T3 construct: endogenous in cells; host or cells: astrocytes from wild-type and Nuc1 rats
T3 sequence (P20417 1-432): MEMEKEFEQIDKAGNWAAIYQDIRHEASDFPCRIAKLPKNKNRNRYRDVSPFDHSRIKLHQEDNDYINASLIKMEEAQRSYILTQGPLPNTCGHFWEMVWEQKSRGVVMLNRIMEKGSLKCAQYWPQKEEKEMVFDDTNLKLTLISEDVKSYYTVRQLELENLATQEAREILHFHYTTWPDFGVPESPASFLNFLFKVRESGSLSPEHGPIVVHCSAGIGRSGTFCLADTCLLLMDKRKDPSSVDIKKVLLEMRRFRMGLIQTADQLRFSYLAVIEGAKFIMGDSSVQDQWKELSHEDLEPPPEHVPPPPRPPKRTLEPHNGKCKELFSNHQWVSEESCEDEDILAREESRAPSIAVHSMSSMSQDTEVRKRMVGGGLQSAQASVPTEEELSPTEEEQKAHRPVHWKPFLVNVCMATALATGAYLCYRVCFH

PTP1B [5] = biological target: T2, PTP1B; assay: PTP activity kinetics, Lineweaver Burk plots; format: biochemical; conditions: FIG. 13
PTP1B [6] = biological target: T2, PTP1B; assay: human proteome high-throughput array, βA3/A1-crystallin binding partners; parameters: purchased CDI Laboratories, Inc; conditions: human proteome high-throughput array (CDI Laboratories)

`CC(C)[C@@H](CC[C@@H](C)[C@H]1CC[C@H]2[C@@H]3[C@H](O)C[C@H]4C[C@@H](NCCCNCCCCNCCCN)CC[C@]4(C)[C@H]3CC[C@]12C)OS(=O)(=O)O` [MSI-1436] was tested, and the “retinal function (ERG)” value (diabetic Nuc1 rats) was “rescues retinal function abnormality”.

“PTP1B (pull-down assay and enzyme kinetics)” was tested, and the “Lineweaver Burk plots of PTP activity (Km and Vmax)” value (βA3/A1-crystallin) was “Cryba1 treatment decreases the Km and Vmax of PTP activity”.

B1: recombinant LCN-2: recombinant Lipocalin-2 protein, full length LCN-2 cDNA expressed in E. coli (protein)
chain: QDSTQNLIPAPSLLTVPLQPDFRSDQFRGRWYVVGLAGNAVQKKTEGSFTMYSTIYELQENNSYNVTSILVRDQDQGCRYWIRTFVPSSRAGQFTLGNMHRYPQVQSYNVQVATTDYNQFAMVFFRKTSENKQYFKITLYGRTKELSPELKERFTRFAKSLGLKDDNIIFSVPTDQCIDN
For B1, the “interaction with Dab2” value (Dab2) was “interact with Dab2”, the “OCT retinal structure after injection of WT neutrophils pre-treated with the substance” value (NOD-SCID mice [1]; NOD-SCID mice injected subretinally, IFNλ 200 U/mL, conditioned media 1:1 diluted, LCN-2 10 pg/mL, FIG. 4(iii)-(v)) was “apparent changes in the ONL and INL layers (asterisks), concomitant with severe loss of RPE and IS+OS layer” and the “OCT: alterations of retinal layers” value (NOD-SCID mice [1]; NOD-SCID mice, sub-retinal injection, after 7 days) was “alterations in the RPE and photoreceptor (inner and outer segments) layers”. The “hematoxylin-eosin staining of retinal sections” value (NOD-SCID mice [2]; NOD-SCID mice, relative to vehicle control or WT neutrophil injected mice) was “degenerative changes in the outer nuclear layer (ONL) along with photoreceptor layer”, the “thickness of retinal layers from sections by spider plot” value (NOD-SCID mice [2]; NOD-SCID mice, relative to vehicle or WT neutrophil-treated groups) was “severe loss or thinning of IS/OS and RPE layers” and the “rhodopsin and RPE 65 staining (photoreceptor and RPE cell loss)” value (NOD-SCID mice [2]; immunofluorescence, retina of NOD-SCID mice, with respect to controls) was “reduced staining”.

B2: βA3/A1-crystallin: two closely related polypeptides encoded by Cryba1, produced by two different translational start sites; biological inhibitor binding PTP1B (protein)
chain: METQTVQRELETLPTTKMAQTNPMPGSMGPWKITIYDQENFQGKRMEFTSSCPNVSERSFDNVRSLKVECGAWIGYEHTSFCGQQFILERGEYPRWDAWSGSNAYHIERLMSFRPICSANHKESKITIFEKENFIGRQWEICDDYPSLQAMGWFNNEVGSMKIQCGAWVCYQYPGYRGYQYILECDHHGGDYKHWREWGTHAQTSQIQSIRRIQQ
B2 was tested, and the “binding to PTP1B” value (PTP1B [3]) was “bound to PTP1B”, the “binding partner by co-immunoprecipitation” value (PTP1B [4]) was “PTP1B was a binding partner” and the “Km of PTP activity” value (PTP1B [5]) was “decreases”. The “Vmax of PTP activity” value (PTP1B [5]) was “decreases”, the “mode of PTP1B inhibition” value (PTP1B [5]) was “uncompetitive inhibitor of PTP1B” and the “interaction with PTP1B” value (PTP1B [6]) was “interact with PTP1B”.
